{"source": "patent US20040210040A1", "about": "(PDL BIOPHARMA, published 2004)", "binders": {"B1": {"name": "PAR34 (murine anti-amphiregulin monoclonal antibody) (antibody, mouse IgG2b, V domains shown)", "VH": "EIQLQQSGPELVKPGASVKVSCKASGYAFTNYNMYWVKQSHGKSLEWIGYIDPYYGDPGYSQKFKGKATLTVDKSSSTAYMHLNSLTSEDSAVYYCARRGNFPYYFDYWGQGTTLTVSS", "VL": "DIKMTQSPSSMYASLGERVTITCKASQDINSYLSWFQQKPGKSPKTLIYRANRLVDGVPSRFSGSGSGQDYSLTISSLEYEDMGIYYCLQYDEFPYTFGGGTKLEIK"}, "B2": {"name": "HuPAR34 (humanized PAR34, IgG1/kappa) (antibody, V domains shown)", "VH": "EVQLVQSGAEVKKPGASVKISCKVSGYAFTNYNMYWVRQAPGKGLEWIGYIDPYYGDPGYSQKFKGKATLTVDKSTSTAYMELSSLRSEDTAVYYCARRGNFPYYFDYWGQGTLVTVSS", "VL": "DIQMTQSPSSLSASVGDRVTITCKASQDINSYLSWFQQKPGKAPKTLIYRANRLVDGVPSRFSGSGSGQDYTLTISSLQPEDFATYYCLQYDEFPYTFGGGTKVEIK"}}, "key": {"[1]": {"target": "T1, recombinant soluble human amphiregulin (human, UniProt P15514 101-198, limits assumed)", "T1 construct": "also called AR; human AR", "T1 sequence": "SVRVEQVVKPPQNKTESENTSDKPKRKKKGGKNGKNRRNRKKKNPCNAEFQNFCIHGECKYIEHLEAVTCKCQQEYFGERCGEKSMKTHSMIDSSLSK", "experiment": "SPR (BIAcore 3000), antibody immobilized, AR as analyte", "method": "(§1) Affinities between human amphiregulin (AR) and PAR34 or HuPAR34 were analyzed using BIAcore 3000 (BLAcore, Sweden).\n(§2) The BIAcore analysis may be conducted according to the following protocol. PAR34 or HuPAR34 is immobilized on the Pioneer F1 chip using standard amine coupling kit (BIAcore). Surface plasmon resonance is measured at a flow rate of 50 μl/min at 24° C. Injection of AR (association phase) occurs over 180 seconds. Dissociation is subsequently monitored over 3 hours. Kinetics of binding (ka and kd) are calculated from data acquired at five different concentrations of analyte (320 nM, 160 nM, 80 nM, 40 nM, 20 nM), using the BIAevaluation program. Double-referencing is applied to eliminate responses from reference surface and buffer only control. The binding affinity, KD, is obtained by simultaneously fitting the association and dissociation phases of the sensorgram from the analyte concentration series."}, "[2]": {"target": "T1, recombinant soluble human amphiregulin", "experiment": "competition ELISA on plate-coated recombinant soluble human amphiregulin; competes with biotinylated PAR34", "method": "(§3) The affinity of HuPAR34 to human amphiregulin was analyzed by competition ELISA. MaxiSorp ELISA plates (Nalge Nunc International) were coated overnight at 4° C. with 100 μl/well of 0.5 μg/ml recombinant soluble human amphiregulin in 0.2 M sodium carbonate-bicarbonate buffer, pH 9.4, washed with Wash Buffer (PBS containing 0.1% Tween 20), and blocked for 15 min at room temperature with 200 μl/well of SuperBlock Blocking Buffer in TBS (Pierce Chemical Company). After washing with Wash Buffer, a mixture of biotinylated PAR34 (0.125 μg/ml final concentration) and competitor antibody (PAR34 or HuPAR34 starting at 75 μg/ml final concentration and serially diluted 3-fold) in 100 μl/well of ELISA buffer was added in triplicate. As a control, 100 μl/well of 75 μg/ml of humanized anti-CD33 IgG1/κ monoclonal antibody HuM195 (Co, M. S. et al., J. Immunol., 148: 1149-1154 (1992)) in ELISA buffer was used. As a no-competitor control, 100 μl/well of ELISA Buffer was used. After incubating the plates for 1 hr and washing with Wash Buffer, bound antibodies were detected using 100 μl/well of 1 μg/ml HRP-conjugated streptavidin (Pierce Chemical Company) in ELISA buffer. After incubating for 0.5 hr at room temperature and washing with Wash Buffer, color development was performed by adding 100 μl/well of ABTS substrate (KPL, Inc.). […] Absorbance was read at 415 nm. […]"}, "[3]": {"target": "T1, recombinant soluble human amphiregulin", "experiment": "competition ELISA on coated recombinant soluble human amphiregulin, competitor against biotinylated PAR34, Exp. C", "method": "as §3"}, "[4]": {"target": "T1, recombinant soluble human amphiregulin", "experiment": "cell-based or functional assay"}, "[5]": {"target": "T1, recombinant soluble human amphiregulin", "experiment": "competition ELISA on coated recombinant soluble human amphiregulin, competitor against biotinylated PAR34, Exp. A", "method": "as §3"}, "[6]": {"target": "T1, recombinant soluble human amphiregulin", "experiment": "competition ELISA on coated recombinant soluble human amphiregulin, competitor against biotinylated PAR34, Exp. D", "method": "as §3"}, "[7]": {"target": "T1, recombinant soluble human amphiregulin", "experiment": "competition ELISA on coated recombinant soluble human amphiregulin, competitor against biotinylated PAR34, average of Exp. A-D", "method": "as §3"}, "[8]": {"target": "T1, recombinant soluble human amphiregulin", "experiment": "competition ELISA on coated recombinant soluble human amphiregulin, competitor against biotinylated PAR34, Exp. B", "method": "as §3"}, "[9]": {"target": "T1, recombinant soluble human amphiregulin", "experiment": "competition ELISA against biotinylated PAR34, Exp. C", "method": "as §3"}, "[10]": {"target": "T1, recombinant soluble human amphiregulin", "experiment": "competition ELISA against biotinylated PAR34, average of Exp. A-D", "method": "as §3"}, "[11]": {"target": "T1, recombinant soluble human amphiregulin", "experiment": "competition ELISA against biotinylated PAR34, Exp. A", "method": "as §3"}, "[12]": {"target": "T1, recombinant soluble human amphiregulin", "experiment": "SPR (BIAcore 3000)", "method": "as §1, §2"}, "[13]": {"target": "T1, recombinant soluble human amphiregulin", "experiment": "competition ELISA against biotinylated PAR34, Exp. D", "method": "as §3"}, "[14]": {"target": "T1, recombinant soluble human amphiregulin", "experiment": "competition ELISA against biotinylated PAR34, Exp. B", "method": "as §3"}}}
{"binder": "B1", "values": [{"measurement": "Kd", "setting": "[1]", "value": 0.41, "unit": "nM"}, {"measurement": "koff", "setting": "[1]", "value": 0.024, "unit": "s⁻¹"}, {"measurement": "kon", "setting": "[1]", "value": "4.8e+07", "unit": "M⁻¹ s⁻¹"}, {"measurement": "IC50 (read off the curve)", "setting": "[2]", "value": "~1", "unit": "mg/L"}, {"measurement": "IC50", "setting": "[3]", "value": 1.3, "unit": "mg/L"}, {"measurement": "IC50 of inhibition of AR-mediated proliferation in 3T3 cells", "setting": "[4]", "value": 0.025, "unit": "mg/L"}, {"measurement": "IC50", "setting": "[5]", "value": 0.82, "unit": "mg/L"}, {"measurement": "IC50", "setting": "[6]", "value": 1.39, "unit": "mg/L"}, {"measurement": "IC50", "setting": "[7]", "value": 1.07, "unit": "mg/L"}, {"measurement": "IC50", "setting": "[8]", "value": 0.78, "unit": "mg/L"}]}
{"binder": "B2", "values": [{"measurement": "Kd", "setting": "[1]", "value": 0.53, "unit": "nM"}, {"measurement": "koff", "setting": "[1]", "value": 0.00823, "unit": "s⁻¹"}, {"measurement": "kon", "setting": "[1]", "value": "1.26e+07", "unit": "M⁻¹ s⁻¹"}, {"measurement": "IC50 (read off the curve)", "setting": "[2]", "value": "~2", "unit": "mg/L"}, {"measurement": "fold difference of IC50, HuPAR34 against PAR34", "setting": "[9]", "value": 1.4, "unit": "fold"}, {"measurement": "IC50", "setting": "[3]", "value": 1.76, "unit": "mg/L"}, {"measurement": "IC50 of inhibition of AR-mediated proliferation in 3T3 cells", "setting": "[4]", "value": 0.055, "unit": "mg/L"}, {"measurement": "fold difference of IC50, HuPAR34 against PAR34", "setting": "[10]", "value": 1.8, "unit": "fold"}, {"measurement": "fold difference of IC50, HuPAR34 against PAR34", "setting": "[11]", "value": 2.4, "unit": "fold"}, {"measurement": "fold difference of affinity, HuPAR34 against PAR34", "setting": "[12]", "value": "≤ 2", "unit": "fold"}, {"measurement": "fold difference of IC50, HuPAR34 against PAR34", "setting": "[13]", "value": 2, "unit": "fold"}, {"measurement": "fold difference of IC50, HuPAR34 against PAR34", "setting": "[14]", "value": 1.4, "unit": "fold"}, {"measurement": "IC50", "setting": "[5]", "value": 1.95, "unit": "mg/L"}, {"measurement": "IC50", "setting": "[6]", "value": 2.76, "unit": "mg/L"}, {"measurement": "IC50", "setting": "[7]", "value": 1.9, "unit": "mg/L"}, {"measurement": "IC50", "setting": "[8]", "value": 1.11, "unit": "mg/L"}]}
